# Paper PMC13101046 (Journal of molecular biology, 2025)
# Several values for one entry are separate records, joined by “and”; a condition that tells them apart may be missing. Identical values can stand only once.
# T1: RecB (E. coli, UniProt P08394 1-1180)
# T1 construct: RecB, E. coli, full length (134 kDa); also called full length RecB; source: purified as part of the RecBCD hetero-trimer
# T1 sequence (looked up): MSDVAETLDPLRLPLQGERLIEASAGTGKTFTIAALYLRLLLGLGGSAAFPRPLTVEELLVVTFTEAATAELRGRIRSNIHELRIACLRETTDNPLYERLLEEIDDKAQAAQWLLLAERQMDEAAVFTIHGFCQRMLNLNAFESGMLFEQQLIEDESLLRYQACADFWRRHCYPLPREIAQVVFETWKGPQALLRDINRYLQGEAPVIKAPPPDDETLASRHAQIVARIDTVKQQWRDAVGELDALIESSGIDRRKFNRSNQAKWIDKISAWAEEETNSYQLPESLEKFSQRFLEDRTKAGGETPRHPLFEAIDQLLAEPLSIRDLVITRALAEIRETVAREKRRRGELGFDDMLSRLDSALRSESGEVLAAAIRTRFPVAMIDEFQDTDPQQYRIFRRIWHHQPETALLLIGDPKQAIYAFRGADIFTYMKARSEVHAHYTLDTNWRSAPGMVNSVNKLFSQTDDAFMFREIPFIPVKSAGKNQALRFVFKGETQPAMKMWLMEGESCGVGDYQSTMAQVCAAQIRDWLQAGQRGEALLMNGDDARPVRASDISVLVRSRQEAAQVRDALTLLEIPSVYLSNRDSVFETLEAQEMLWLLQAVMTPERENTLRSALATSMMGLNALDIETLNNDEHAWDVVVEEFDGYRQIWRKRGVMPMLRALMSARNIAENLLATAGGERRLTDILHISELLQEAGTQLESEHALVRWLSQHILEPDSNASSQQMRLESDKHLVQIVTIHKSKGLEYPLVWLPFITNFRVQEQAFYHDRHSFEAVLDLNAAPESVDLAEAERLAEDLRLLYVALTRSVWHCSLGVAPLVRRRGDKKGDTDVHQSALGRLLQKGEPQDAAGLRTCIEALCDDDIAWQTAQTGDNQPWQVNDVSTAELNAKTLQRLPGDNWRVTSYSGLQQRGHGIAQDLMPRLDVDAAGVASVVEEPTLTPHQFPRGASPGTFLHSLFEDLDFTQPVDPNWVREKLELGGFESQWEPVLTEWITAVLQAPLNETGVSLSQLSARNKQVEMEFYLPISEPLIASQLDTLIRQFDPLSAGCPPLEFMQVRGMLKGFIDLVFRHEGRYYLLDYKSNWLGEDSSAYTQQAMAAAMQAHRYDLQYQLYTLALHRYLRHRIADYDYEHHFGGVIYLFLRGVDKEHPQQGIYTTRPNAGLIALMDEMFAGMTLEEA
# B1: RecC (natural protein, E. coli)
# chain: MLRVYHSNRLDVLEALMEFIVERERLDDPFEPEMILVQSTGMAQWLQMTLSQKFGIAANIDFPLPASFIWDMFVRVLPEIPKESAFNKQSMSWKLMTLLPQLLEREDFTLLRHYLTDDSDKRKLFQLSSKAADLFDQYLVYRPDWLAQWETGHLVEGLGEAQAWQAPLWKALVEYTHQLGQPRWHRANLYQRFIETLESATTCPPGLPSRVFICGISALPPVYLQALQALGKHIEIHLLFTNPCRYYWGDIKDPAYLAKLLTRQRRHSFEDRELPLFRDSENAGQLFNSDGEQDVGNPLLASWGKLGRDYIYLLSDLESSQELDAFVDVTPDNLLHNIQSDILELENRAVAGVNIEEFSRSDNKRPLDPLDSSITFHVCHSPQREVEVLHDRLLAMLEEDPTLTPRDIIVMVADIDSYSPFIQAVFGSAPADRYLPYAISDRRARQSHPVLEAFISLLSLPDSRFVSEDVLALLDVPVLAARFDITEEGLRYLRQWVNESGIRWGIDDDNVRELELPATGQHTWRFGLTRMLLGYAMESAQGEWQSVLPYDESSGLIAELVGHLASLLMQLNIWRRGLAQERPLEEWLPVCRDMLNAFFLPDAETEAAMTLIEQQWQAIIAEGLGAQYGDAVPLSLLRDELAQRLDQERISQRFLAGPVNICTLMPMRSIPFKVVCLLGMNDGVYPRQLAPLGFDLMSQKPKRGDRSRRDDDRYLFLEALISAQQKLYISYIGRSIQDNSERFPSVLVQELIDYIGQSHYLPGDEALNCDESEARVKAHLTCLHTRMPFDPQNYQPGERQSYAREWLPAASQAGKAHSEFVQPLPFTLPETVPLETLQRFWAHPVRAFFQMRLQVNFRTEDSEIPDTEPFILEGLSRYQINQQLLNALVEQDDAERLFRRFRAAGDLPYGAFGEIFWETQCQEMQQLADRVIACRQPGQSMEIDLACNGVQITGWLPQVQPDGLLRWRPSLLSVAQGMQLWLEHLVYCASGGNGESRLFLRKDGEWRFPPLAAEQALHYLSQLIEGYREGMSAPLLVLPESGGAWLKTCYDAQNDAMLDDDSTLQKARTKFLQAYEGNMMVRGEGDDIWYQRLWRQLTPETMEAIVEQSQRFLLPLFRFNQS
# notes: RecC, E. coli, wild type; Called wild type; source: purified as part of the RecBCD or RecB^ΔNucCD hetero-trimer
# Experiments:
# RecBCD (E. coli) = test: competition fluorescence titration; conditions: Buffer M275-10: 20 mM MOPS pH 7.0, 275 mM NaCl, 10 mM MgCl2, 25 °C (M50-10: 50 mM NaCl); cryo-EM buffer 20 mM Tris pH 7.4, 50 mM NaCl, 4 mM MgCl2
# [1] = molecular target: T2, RecBΔNucCD RecB:del930-1180 (E. coli) (UniProt P08394+P07648+P04993); test: competition fluorescence titration; conditions: Buffer M275-10: 20 mM MOPS pH 7.0, 275 mM NaCl, 10 mM MgCl2, 25 °C (M50-10: 50 mM NaCl); cryo-EM buffer 20 mM Tris pH 7.4, 50 mM NaCl, 4 mM MgCl2
# [2] = molecular target: T2, RecBΔNucCD RecB:del930-1180 (E. coli); test: ITC; conditions: Buffer M275-10: 20 mM MOPS pH 7.0, 275 mM NaCl, 10 mM MgCl2, 25 °C (M50-10: 50 mM NaCl); cryo-EM buffer 20 mM Tris pH 7.4, 50 mM NaCl, 4 mM MgCl2
# RecC = molecular target: B1; test: AUC; sedimentation velocity, c(s) distribution; 200 nM protein, Buffer M50-10 (20 mM MOPS pH 7.0, 50 mM NaCl, 10 mM MgCl2), 25 °C, 42,000 rpm, absorbance at 280 nm; conditions: both partners purified
# RecB = molecular target: T1, RecB; test: as above; conditions: both partners purified
Molecule,Ka (RecBCD (E. coli)) [M⁻¹],Ka [1] [M⁻¹],Ka [2],other results
3'-dT2,2.1e+07,9.6e+07,,
3'-dT4,4.7e+07,3.3e+08,,
3'-dT6,1.1e+08,9.5e+08,,
3'-dT8,,7.2e+08,,
3'-dT10,5e+07,5.9e+08,,
3'-dT15,1e+07,6e+07,,
5'-dT6,1.1e+08,1.4e+08,,
5'-dT8,,2.3e+08,,
5'-dT10,2.2e+08,6.4e+08,,
5'-dT15,2.3e+08,6.5e+08,,
blunt ended 60 bp DNA,1.4e+07,4.7e+07,,
dT4-dT4,,,> 1e+09 M⁻¹,
dT6-dT6,,,> 1e+09 M⁻¹,
dT10-dT10,,,> 1e+09 M⁻¹,
dT15-dT15,,,> 1e+09 M⁻¹,
dT20-dT20,,,> 1e+09 M⁻¹,
dT25-dT25,,,> 1e+09 M⁻¹,
dT30-dT30,,,6.8e+08 M⁻¹ and > 1e+09 M⁻¹,
"RecD (natural protein, E. coli, RecD, E. coli, wild type; Called wild type; Most of RecD has only weak density in the structures solved here; source: purified as part of the RecBCD or RecB^ΔNucCD hetero-trimer) MKLQKQLLEAVEHKQLRPLDVQFALTVAGDEHPAVTLAAALLSHDAGEGHVCLPLSRLENNEASHPLLATCVSEIGELQNWEECLLASQAVSRGDEPTPMILCGDRLYLNRMWCNERTVARFFNEVNHAIEVDEALLAQTLDKLFPVSDEINWQKVAAAVALTRRISVISGGPGTGKTTTVAKLLAALIQMADGERCRIRLAAPTGKAAARLTESLGKALRQLPLTDEQKKRIPEDASTLHRLLGAQPGSQRLRHHAGNPLHLDVLVVDEASMIDLPMMSRLIDALPDHARVIFLGDRDQLASVEAGAVLGDICAYANAGFTAERARQLSRLTGTHVPAGTGTEAASLRDSLCLLQKSYRFGSDSGIGQLAAAINRGDKTAVKTVFQQDFTDIEKRLLQSGEDYIAMLEEALAGYGRYLDLLQARAEPDLIIQAFNEYQLLCALREGPFGVAGLNERIEQFMQQKRKIHRHPHSRWYEGRPVMIARNDSALGLFNGDIGIALDRGQGTRVWFAMPDGNIKSVQPSRLPEHETTWAMTVHKSQGSEFDHAALILPSQRTPVVTRELVYTAVTRARRRLSLYADERILSAAIATRTERRSGLAALFSSRE",,,,binding result (RecC): binds
B1,,,,binding result (RecB): binds
"RecB^ΔNuc (RecB with the nuclease domain, residues 930-1180, deleted) (domain or fragment, E. coli, UniProt P08394 1-929, looked up, RecB, E. coli; the C-terminal nuclease domain RecB^Nuc (RecB930-1180) is deleted, the deletion starts at amino acid 930 and leaves the whole linker (870-929) intact; runs at 105 kDa; Subunit of the RecB^ΔNucCD hetero-trimer; source: purified to homogeneity as part of the RecB^ΔNucCD hetero-trimer, as described previously for RecBCD) MSDVAETLDPLRLPLQGERLIEASAGTGKTFTIAALYLRLLLGLGGSAAFPRPLTVEELLVVTFTEAATAELRGRIRSNIHELRIACLRETTDNPLYERLLEEIDDKAQAAQWLLLAERQMDEAAVFTIHGFCQRMLNLNAFESGMLFEQQLIEDESLLRYQACADFWRRHCYPLPREIAQVVFETWKGPQALLRDINRYLQGEAPVIKAPPPDDETLASRHAQIVARIDTVKQQWRDAVGELDALIESSGIDRRKFNRSNQAKWIDKISAWAEEETNSYQLPESLEKFSQRFLEDRTKAGGETPRHPLFEAIDQLLAEPLSIRDLVITRALAEIRETVAREKRRRGELGFDDMLSRLDSALRSESGEVLAAAIRTRFPVAMIDEFQDTDPQQYRIFRRIWHHQPETALLLIGDPKQAIYAFRGADIFTYMKARSEVHAHYTLDTNWRSAPGMVNSVNKLFSQTDDAFMFREIPFIPVKSAGKNQALRFVFKGETQPAMKMWLMEGESCGVGDYQSTMAQVCAAQIRDWLQAGQRGEALLMNGDDARPVRASDISVLVRSRQEAAQVRDALTLLEIPSVYLSNRDSVFETLEAQEMLWLLQAVMTPERENTLRSALATSMMGLNALDIETLNNDEHAWDVVVEEFDGYRQIWRKRGVMPMLRALMSARNIAENLLATAGGERRLTDILHISELLQEAGTQLESEHALVRWLSQHILEPDSNASSQQMRLESDKHLVQIVTIHKSKGLEYPLVWLPFITNFRVQEQAFYHDRHSFEAVLDLNAAPESVDLAEAERLAEDLRLLYVALTRSVWHCSLGVAPLVRRRGDKKGDTDVHQSALGRLLQKGEPQDAAGLRTCIEALCDDDIAWQTAQTGDNQPWQVNDVSTAELNAKTLQRLPGDNWRVTSYSGLQQRGHGIAQDLMPRLDVDAA",,,,binding result (RecC): binds
